Where two headings read alike, the source gives them in different places.

For experiment [1], the target named is PKA-phosphorylated β2AR (FLAG-mYFP-β2AR pulled down with anti-pS261/262) (mouse) (UniProt P18762). Description: single-molecule pulldown (SiMPull) with two-colour co-localisation; FLAG-mYFP-β2AR and FLAG-mCherry-β2AR co-expressed 1:1 in HEK293, ISO-treated; lysate pulled down with anti-FLAG or phospho-specific antibodies; mCherry and mYFP spots within 1 pixel (~150 nm) counted as co-localised; overlap = co-localised mYFP / total mYFP; reference mCherry-mYFP fusion gives 58.8% overlap.

For experiment [2] the target is unchanged. Description: single-molecule pulldown (SiMPull) with photobleaching step analysis; lysates (10 mM Tris pH 7.9, 0.1% DDM, 150 mM NaCl, 2 mM EDTA) of cells expressing mYFP-tagged receptor, untreated or ISO 5 min; captured on slides by biotinylated anti-FLAG or by phospho-specific β2AR antibodies with biotinylated secondary IgG; TIRF; bleaching steps of mYFP counted; percent dimer calculated assuming 75% active mYFP.

Experiment [3] has as its target FLAG-mYFP-β2AR (β2-adrenergic receptor), total receptor pulled down with anti-FLAG (mouse) (UniProt P18762). Description: single-molecule pulldown (SiMPull) with two-colour co-localisation; FLAG-mYFP-β2AR and FLAG-mCherry-β2AR co-expressed 1:1 in HEK293, ISO-treated; lysate pulled down with anti-FLAG or phospho-specific antibodies; mCherry and mYFP spots within 1 pixel (~150 nm) counted as co-localised; overlap = co-localised mYFP / total mYFP; reference mCherry-mYFP fusion gives 58.8% overlap.

Experiment [4] has the same target. Description: single-molecule pulldown (SiMPull) with photobleaching step analysis; lysates (10 mM Tris pH 7.9, 0.1% DDM, 150 mM NaCl, 2 mM EDTA) of cells expressing mYFP-tagged receptor, untreated or ISO 5 min; captured on slides by biotinylated anti-FLAG or by phospho-specific β2AR antibodies with biotinylated secondary IgG; TIRF; bleaching steps of mYFP counted; percent dimer calculated assuming 75% active mYFP.

Experiment [5] has as its target GRK-phosphorylated β2AR (FLAG-mYFP-β2AR pulled down with anti-pS355/356) (mouse) (UniProt P18762). Description: single-molecule pulldown (SiMPull) with two-colour co-localisation; FLAG-mYFP-β2AR and FLAG-mCherry-β2AR co-expressed 1:1 in HEK293, ISO-treated; lysate pulled down with anti-FLAG or phospho-specific antibodies; mCherry and mYFP spots within 1 pixel (~150 nm) counted as co-localised; overlap = co-localised mYFP / total mYFP; reference mCherry-mYFP fusion gives 58.8% overlap.

Experiment [6] has the same target. Description: single-molecule pulldown (SiMPull) with photobleaching step analysis; lysates (10 mM Tris pH 7.9, 0.1% DDM, 150 mM NaCl, 2 mM EDTA) of cells expressing mYFP-tagged receptor, untreated or ISO 5 min; captured on slides by biotinylated anti-FLAG or by phospho-specific β2AR antibodies with biotinylated secondary IgG; TIRF; bleaching steps of mYFP counted; percent dimer calculated assuming 75% active mYFP.

Experiment [7] has the same target. Described as above. The source holds these as a separate data set.

Sequence of PKA-phosphorylated β2AR (FLAG-mYFP-β2AR pulled down with anti-pS261/262), P18762 1-418 (receptor; phosphoserine at 261/262; phosphoserine at 261/262; other documents disagree on this pair) (P18762 whole entry): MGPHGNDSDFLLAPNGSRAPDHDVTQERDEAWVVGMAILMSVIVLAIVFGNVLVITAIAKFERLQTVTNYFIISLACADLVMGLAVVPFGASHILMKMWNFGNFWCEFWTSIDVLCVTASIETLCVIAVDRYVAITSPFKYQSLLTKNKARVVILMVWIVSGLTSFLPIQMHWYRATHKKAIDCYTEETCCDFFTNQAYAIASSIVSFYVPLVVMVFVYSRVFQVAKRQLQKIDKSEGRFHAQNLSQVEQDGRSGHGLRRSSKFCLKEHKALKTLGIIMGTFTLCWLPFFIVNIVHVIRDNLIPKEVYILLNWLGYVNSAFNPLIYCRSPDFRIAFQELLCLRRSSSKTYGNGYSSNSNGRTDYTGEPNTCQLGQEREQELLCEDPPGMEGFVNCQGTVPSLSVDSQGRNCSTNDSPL
Sequence of FLAG-mYFP-β2AR (β2-adrenergic receptor), total receptor pulled down with anti-FLAG, P18762 1-418 (receptor; other documents disagree on this pair) (P18762 whole entry): as above
Sequence of GRK-phosphorylated β2AR (FLAG-mYFP-β2AR pulled down with anti-pS355/356), P18762 1-418 (receptor; phosphoserine at 355/356; phosphoserine at 355/356; other documents disagree on this pair) (P18762 whole entry): as above

As for “PKA-phosphorylated β2AR (FLAG-mYFP-β2AR pulled down with anti-pS261/262), P18762 1-418 (receptor; phosphoserine at 261/262; phosphoserine at 261/262; other documents disagree on this pair)”, the percent overlap between mYFP and mCherry copies in experiment [1] is greater than 20.4%. For the same substance, in experiment [2], the percent dimers was 68.8% and the stoichiometry N was 2.
“FLAG-mYFP-β2AR (β2-adrenergic receptor), total receptor pulled down with anti-FLAG, P18762 1-418 (receptor; other documents disagree on this pair)”: the percent overlap between mYFP and mCherry copies in experiment [3] came out at 13.2%. Moreover, in experiment [4], the percent dimers was 42.7% and the stoichiometry N was 2.
As for “GRK-phosphorylated β2AR (FLAG-mYFP-β2AR pulled down with anti-pS355/356), P18762 1-418 (receptor; phosphoserine at 355/356; phosphoserine at 355/356; other documents disagree on this pair)”, the percent overlap between mYFP and mCherry copies in experiment [5] was less than 3.2%. For the same substance, the figures for the percent monomers in experiment [6] and in experiment [7] were 86.5% and 88%, respectively. Further, the percent dimers in experiment [7] is 12%.

Usually stoichiometry N stands for a count of units in the complex or per binding partner.

Source of the values: publication PMC5849717.
